Blank lines part the entries; values can stand above or below the molecule they belong to. Residues, ends and D or L forms follow the SMILES beside them. No end group written: not given here. *: point of attachment. X2 = CC1(C)C(=CC=C2CCCC(C=CC3=[N+](CCCCS(=O)(=O)[O-])c4ccc(S(=O)(=O)O)cc4C3(C)C)=C2Oc2ccc(S(=O)(=O)O)cc2)N(CCCCCC(=O)NCCN2C(=O)CC(*)C2=O)c2ccc(S(=O)(=O)O)cc21; IRDye800 = IRDye800 near-infrared fluorophore
Assays:
EpCAM [1] = target: T1, EpCAM (Homo sapiens, UniProt P16422); experiment: Binding competition with unlabeled peptide on Hep3B cells; format: cell-based; conditions: confocal microscopy
T1 construct: endogenous in cells; host or cells: Hep3B human hepatocellular carcinoma cells
T1 sequence (P16422 24-314): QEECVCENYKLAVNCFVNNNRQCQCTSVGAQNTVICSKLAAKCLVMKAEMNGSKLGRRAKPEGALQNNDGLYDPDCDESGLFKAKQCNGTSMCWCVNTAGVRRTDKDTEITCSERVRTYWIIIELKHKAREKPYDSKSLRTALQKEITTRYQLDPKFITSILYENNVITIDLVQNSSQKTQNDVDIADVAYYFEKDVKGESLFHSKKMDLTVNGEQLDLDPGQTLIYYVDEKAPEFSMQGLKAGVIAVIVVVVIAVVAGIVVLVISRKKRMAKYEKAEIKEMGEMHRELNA
Procedure: Unlabeled target and control peptide was added to IRDye800-labeled target peptides to compete for binding to EpCAM. Inverted confocal microscopy (Leica, Wetzlar, Germany, Stellaris 5) was used to acquire the NIR fluorescence images, and intensities were measured with custom MATLAB (Mathworks) software (Matlab version R2023a).

tumors = conditions: ICG, EPR effect; cited from earlier work
From the text: An IRDye800-labeled chimeric monoclonal antibody 323/A3 was used to detect a broad range of tumors found clinically. Cell-derived xenograft colon, breast, head and neck, and peritoneal carcinomatosis tumors were implanted orthotopically. Tumor nodules with millimeter dimensions were detected with NIR fluorescence imaging that were not otherwise visible. […] Also, a 7-mer peptide YQ-S2 was labeled with the NIR fluorophore MPA [36]. The peptide was character ... || Image-guided surgery aims to remove all cancerous tissues, and thus requires an effective strategy to discriminate tumor cells from non-tumor cells. NIR fluorescence imaging can be used as an adjunct to conventional laparoscopy to assist the surgeon to identify small and missed lesions. The spectra of white light illumination and IRDye800 fluorescence are sufficiently separated so that both modalities can be used concurrently during surgery. ICG is FDA-approved, and this contrast agent is currently being used clinically to identify HCC in real time. The non-specific NIR dye gathers in t ...

[2] = test system: human HCC patient-derived xenograft (PDX) tumors; experiment: In vivo whole-body NIR fluorescence imaging, orthotopic HCC PDX
Procedure: Orthotopic HCC mice were used for imaging ~3–4 weeks post-implantation.
IRDye800-labeled target and control peptides (300 μM, 200 μL PBS), unlabeled target peptide (block, 1.5 mM, 100 μL), and ICG (2.46 mg/kg) were injected in tumor-bearing animals using the tail vein. Unlabeled target peptide was injected 30 min prior to the IRDye800-labeled target peptide to compete for binding. The Pearl Trilogy (LI-COR Biosciences) was used to collect whole-body NIR fluorescence images over a time frame of 24 h post-injection.

EpCAM [3] = conditions: read-out: binding affinity kd; cited from earlier work
From the text: An IRDye800-labeled chimeric monoclonal antibody 323/A3 was used to detect a broad range of tumors found clinically. Cell-derived xenograft colon, breast, head and neck, and peritoneal carcinomatosis tumors were implanted orthotopically. Tumor nodules with millimeter dimensions were detected with NIR fluorescence imaging that were not otherwise visible. […] Also, a 7-mer peptide YQ-S2 was labeled with the NIR fluorophore MPA [36]. The peptide was character ...

Serum stability = format: in vitro ADME; conditions: 30 μM IRDye800-labeled peptide in mouse serum, 37 °C, 0, 0.5, 1.0, 1.5, 2, 3, 4 and 24 h, analytical RP-HPLC area under the peak; R^2 = 0.99; n = 6 mice in each group; read-out: half-life T1/2 in mouse serum (converted)
Procedure: IRDye800-labeled target peptide measuring 30 μM was incubated with mouse serum at time intervals ranging up to 24 h at 37 °C, and was monitored by analytical RP-HPLC. The relative peptide concentrations were determined by measuring the area under the peak (Waters, Breeze 2).

[4] = Peptide biodistribution in harvested organs; format: in vivo, mouse; conditions: organs harvested 1.5 h post-injection, NIR fluorescence
Procedure: PDX-implanted mouse livers were exposed by making a small (1–2 cm) incision in the abdomen below the sternum. A custom laparoscope that collects white light and fluorescence images (λex = 785 nm) concurrently were used to image the liver region at 1.5 h post-injection via the tail vein [34]. IRDye800-labeled peptides, unlabeled peptide, and ICG were administrated as described above. Once imaging was completed, major organs, including the heart, spleen, lung, liver, brain, stomach, kidney, and intestine, were collected and imaged with white light and fluorescence to evaluate peptide biodistribution.

[5] = Animal necropsy for acute toxicity; format: in vivo, mouse; conditions: healthy mice, 48 h post-injection, 300 μM, 200 μL PBS; heart, liver, spleen, lung, kidney, stomach, intestine, brain
Procedure: Healthy mice were euthanized at 48 h post-injection with the IRDye800-labeled target peptide (300 μM, 200 μL PBS). Major organs, including liver, kidney, heart, lung, spleen, stomach, intestine, and brain, were resected and submitted for pathological evaluation to assess for acute toxicity.

HPD*-IRDye800 = target: T2, HPD*-IRDye800; experiment: Hep3B cell binding
T2 chain: HPDMFTRTHSHNGGGSC-IRDye800

effect of unlabeled peptide on HPD*-IRDye800 fluorescence intensity (EpCAM [1]): did not show an intensity reduction
Molecule: PFHDMHSNHTRT [PFH*, unlabeled scrambled control peptide …]

effect of unlabeled peptide on HPD*-IRDye800 fluorescence intensity (EpCAM [1]): decrease significantly
Molecule: HPDMFTRTHSHN [HPD*, unlabeled 12-mer EpCAM target peptide …]

The remaining lines, values behind:

Molecule: CC1(C)C(/C=C/C=C/C=C/C=C2\N(CCCCS(=O)(=O)O)c3ccc4ccccc4c3C2(C)C)=[N+](CCCCS(=O)(=O)[O-])c2ccc3ccccc3c21 [ICG, indocyanine green, reference compound]
time of maximum tumor absorption post-injection (tumors): > 48 h | T/B ratio at peak uptake ([2]; whole-body imaging, 1.5 h post-injection, tail vein, labeled peptides 300 μM, 200 μL, block = unlabeled HPD* before HPD*-IRDye800, ICG 2.46 mg/kg, mean ± SD, n = 6): 1.26 ± 0.05

Molecule: SNFYMPL [7-mer EpCAM peptide used to label a pH-sensitive polymeric micelle encapsulating paclitaxel]
Kd (EpCAM [3]): 164 nM

Molecule: CSCC[C@H](NC(=O)[C@H](CC(=O)O)NC(=O)[C@@H]1CCCN1C(=O)[C@@H](N)Cc1c[nH]cn1)C(=O)N[C@@H](Cc1ccccc1)C(=O)N[C@H](C(=O)N[C@@H](CCCNC(=N)N)C(=O)N[C@H](C(=O)N[C@@H](Cc1c[nH]cn1)C(=O)N[C@@H](CO)C(=O)N[C@@H](Cc1c[nH]cn1)C(=O)N[C@@H](CC(N)=O)C(=O)NCC(=O)NCC(=O)NCC(=O)N[C@@H](CO)C(=O)N[C@@H](CSC1CC(=O)N(CCNC(=O)CCCCCN2C(=CC=C3CCCC(C=CC4=[N+](CCCCS(=O)(=O)[O-])c5ccc(S(=O)(=O)O)cc5C4(C)C)=C3Oc3ccc(S(=O)(=O)O)cc3)C(C)(C)c3cc(S(=O)(=O)O)ccc32)C1=O)C(N)=O)[C@@H](C)O)[C@@H](C)O (some centres unmarked) [HPD*-IRDye800] (H-HPDMFTRTHSHNGGGSC(X2)-NH2)
half-life at 30 μM (Serum stability): 2.6 h | uptake in kidney [4]: High uptake | acute toxicity on histopathology of major organs [5]: No signs of acute peptide toxicity | time of return of intensity to baseline ([2]; whole-body fluorescence images post-injection): ~ 24 h | time of peak uptake by HCC tumor post-injection ([2]; whole-body fluorescence, 300 μM, 200 μL PBS, tail vein, orthotopic HCC PDX in NSG mice, n = 6): 1.5 h

B1: EpCAM (protein)
chain: QEECVCENYKLAVNCFVNNNRQCQCTSVGAQNTVICSKLAAKCLVMKAEMNGSKLGRRAKPEGALQNNDGLYDPDCDESGLFKAKQCNGTSMCWCVNTAGVRRTDKDTEITCSERVRTYWIIIELKHKAREKPYDSKSLRTALQKEITTRYQLDPKFITSILYENNVITIDLVQNSSQKTQNDVDIADVAYYFEKDVKGESLFHSKKMDLTVNGEQLDLDPGQTLIYYVDEKAPEFSMQGLK
Kd (HPD*-IRDye800): 67 nM

Reference: paper PMC11352241, “Detection of Hepatocellular Carcinoma in an Orthotopic Patient-Derived Xenograft with an Epithelial Cell Adhesion Molecule-Specific Peptide” (Cancers, 2024)
